# Measured values: paper PMC7018833, “Siroheme synthase orients substrates for dehydrogenase and chelatase activities in a common active site” (Nature Communications, 2020)
# B1: S128A S. enterica siroheme synthase (CysG) (enzyme)
# chain: MDHLPIFCQLRDRDCLIVGGGDVAERKARLLLEAGARLTVNALTFIPQFTVWANEGMLTLVEGPFDETLLDSCWLAIAATDDDTVNQRVSDAAESRRIFCNVVDAPKAASFIMPSIIDRSPLMVAVSAGGTSPVLARLLREKLESLLPQHLGQVARYAGQLRARVKKQFATMGERRRFWEKFFVNDRLAQSLANADEKAVNATTERLFSEPLDHRGEVVLVGAGPGDAGLLTLKGLQQIQQADIVVYDRLVSDDIMNLVRRDADRVFVGKRAGYHCVPQEEINQILLREAQKGKRVVRLKGGDPFIFGRGGEELETLCHAGIPFSVVPGITAASGCSAYSGIPLTHRDYAQSVRLVTGHLKTGGELDWENLAAEKQTLVFYMGLNQAATIQEKLIAFGMQADMPVALVENGTSVKQRVVHGVLTQLGELAQQVESPALIIVGRVVALRDKLNWFSNH
# notes: also called S128A-CysG; source: E. coli LMG194 (pBAD vector), purified (Ni-NTA, anion-exchange, size exclusion chromatography)
# B2: P133H/S128A CysG (enzyme)
# chain: MDHLPIFCQLRDRDCLIVGGGDVAERKARLLLEAGARLTVNALTFIPQFTVWANEGMLTLVEGPFDETLLDSCWLAIAATDDDTVNQRVSDAAESRRIFCNVVDAPKAASFIMPSIIDRSPLMVAVSAGGTSHVLARLLREKLESLLPQHLGQVARYAGQLRARVKKQFATMGERRRFWEKFFVNDRLAQSLANADEKAVNATTERLFSEPLDHRGEVVLVGAGPGDAGLLTLKGLQQIQQADIVVYDRLVSDDIMNLVRRDADRVFVGKRAGYHCVPQEEINQILLREAQKGKRVVRLKGGDPFIFGRGGEELETLCHAGIPFSVVPGITAASGCSAYSGIPLTHRDYAQSVRLVTGHLKTGGELDWENLAAEKQTLVFYMGLNQAATIQEKLIAFGMQADMPVALVENGTSVKQRVVHGVLTQLGELAQQVESPALIIVGRVVALRDKLNWFSNH
# notes: source: E. coli LMG194 (pBAD vector), purified (Ni-NTA, anion-exchange, size exclusion chromatography)
# B3: R260A/S128A CysG (enzyme)
# chain: MDHLPIFCQLRDRDCLIVGGGDVAERKARLLLEAGARLTVNALTFIPQFTVWANEGMLTLVEGPFDETLLDSCWLAIAATDDDTVNQRVSDAAESRRIFCNVVDAPKAASFIMPSIIDRSPLMVAVSAGGTSPVLARLLREKLESLLPQHLGQVARYAGQLRARVKKQFATMGERRRFWEKFFVNDRLAQSLANADEKAVNATTERLFSEPLDHRGEVVLVGAGPGDAGLLTLKGLQQIQQADIVVYDRLVSDDIMNLVARDADRVFVGKRAGYHCVPQEEINQILLREAQKGKRVVRLKGGDPFIFGRGGEELETLCHAGIPFSVVPGITAASGCSAYSGIPLTHRDYAQSVRLVTGHLKTGGELDWENLAAEKQTLVFYMGLNQAATIQEKLIAFGMQADMPVALVENGTSVKQRVVHGVLTQLGELAQQVESPALIIVGRVVALRDKLNWFSNH
# notes: as for B2
# B4: D262A/S128A CysG (enzyme)
# chain: MDHLPIFCQLRDRDCLIVGGGDVAERKARLLLEAGARLTVNALTFIPQFTVWANEGMLTLVEGPFDETLLDSCWLAIAATDDDTVNQRVSDAAESRRIFCNVVDAPKAASFIMPSIIDRSPLMVAVSAGGTSPVLARLLREKLESLLPQHLGQVARYAGQLRARVKKQFATMGERRRFWEKFFVNDRLAQSLANADEKAVNATTERLFSEPLDHRGEVVLVGAGPGDAGLLTLKGLQQIQQADIVVYDRLVSDDIMNLVRRAADRVFVGKRAGYHCVPQEEINQILLREAQKGKRVVRLKGGDPFIFGRGGEELETLCHAGIPFSVVPGITAASGCSAYSGIPLTHRDYAQSVRLVTGHLKTGGELDWENLAAEKQTLVFYMGLNQAATIQEKLIAFGMQADMPVALVENGTSVKQRVVHGVLTQLGELAQQVESPALIIVGRVVALRDKLNWFSNH
# notes: as for B2
# B5: D262N/S128A CysG (enzyme)
# chain: MDHLPIFCQLRDRDCLIVGGGDVAERKARLLLEAGARLTVNALTFIPQFTVWANEGMLTLVEGPFDETLLDSCWLAIAATDDDTVNQRVSDAAESRRIFCNVVDAPKAASFIMPSIIDRSPLMVAVSAGGTSPVLARLLREKLESLLPQHLGQVARYAGQLRARVKKQFATMGERRRFWEKFFVNDRLAQSLANADEKAVNATTERLFSEPLDHRGEVVLVGAGPGDAGLLTLKGLQQIQQADIVVYDRLVSDDIMNLVRRNADRVFVGKRAGYHCVPQEEINQILLREAQKGKRVVRLKGGDPFIFGRGGEELETLCHAGIPFSVVPGITAASGCSAYSGIPLTHRDYAQSVRLVTGHLKTGGELDWENLAAEKQTLVFYMGLNQAATIQEKLIAFGMQADMPVALVENGTSVKQRVVHGVLTQLGELAQQVESPALIIVGRVVALRDKLNWFSNH
# notes: as for B2
# B6: D104N/S128A CysG (enzyme)
# chain: MDHLPIFCQLRDRDCLIVGGGDVAERKARLLLEAGARLTVNALTFIPQFTVWANEGMLTLVEGPFDETLLDSCWLAIAATDDDTVNQRVSDAAESRRIFCNVVNAPKAASFIMPSIIDRSPLMVAVSAGGTSPVLARLLREKLESLLPQHLGQVARYAGQLRARVKKQFATMGERRRFWEKFFVNDRLAQSLANADEKAVNATTERLFSEPLDHRGEVVLVGAGPGDAGLLTLKGLQQIQQADIVVYDRLVSDDIMNLVRRDADRVFVGKRAGYHCVPQEEINQILLREAQKGKRVVRLKGGDPFIFGRGGEELETLCHAGIPFSVVPGITAASGCSAYSGIPLTHRDYAQSVRLVTGHLKTGGELDWENLAAEKQTLVFYMGLNQAATIQEKLIAFGMQADMPVALVENGTSVKQRVVHGVLTQLGELAQQVESPALIIVGRVVALRDKLNWFSNH
# notes: as for B2
# B7: P133G/S128A CysG (enzyme)
# chain: MDHLPIFCQLRDRDCLIVGGGDVAERKARLLLEAGARLTVNALTFIPQFTVWANEGMLTLVEGPFDETLLDSCWLAIAATDDDTVNQRVSDAAESRRIFCNVVDAPKAASFIMPSIIDRSPLMVAVSAGGTSGVLARLLREKLESLLPQHLGQVARYAGQLRARVKKQFATMGERRRFWEKFFVNDRLAQSLANADEKAVNATTERLFSEPLDHRGEVVLVGAGPGDAGLLTLKGLQQIQQADIVVYDRLVSDDIMNLVRRDADRVFVGKRAGYHCVPQEEINQILLREAQKGKRVVRLKGGDPFIFGRGGEELETLCHAGIPFSVVPGITAASGCSAYSGIPLTHRDYAQSVRLVTGHLKTGGELDWENLAAEKQTLVFYMGLNQAATIQEKLIAFGMQADMPVALVENGTSVKQRVVHGVLTQLGELAQQVESPALIIVGRVVALRDKLNWFSNH
# notes: as for B2
# B8: D104A/S128A CysG (enzyme)
# chain: MDHLPIFCQLRDRDCLIVGGGDVAERKARLLLEAGARLTVNALTFIPQFTVWANEGMLTLVEGPFDETLLDSCWLAIAATDDDTVNQRVSDAAESRRIFCNVVAAPKAASFIMPSIIDRSPLMVAVSAGGTSPVLARLLREKLESLLPQHLGQVARYAGQLRARVKKQFATMGERRRFWEKFFVNDRLAQSLANADEKAVNATTERLFSEPLDHRGEVVLVGAGPGDAGLLTLKGLQQIQQADIVVYDRLVSDDIMNLVRRDADRVFVGKRAGYHCVPQEEINQILLREAQKGKRVVRLKGGDPFIFGRGGEELETLCHAGIPFSVVPGITAASGCSAYSGIPLTHRDYAQSVRLVTGHLKTGGELDWENLAAEKQTLVFYMGLNQAATIQEKLIAFGMQADMPVALVENGTSVKQRVVHGVLTQLGELAQQVESPALIIVGRVVALRDKLNWFSNH
# notes: as for B2
# B9: R261A/S128A CysG (enzyme)
# chain: MDHLPIFCQLRDRDCLIVGGGDVAERKARLLLEAGARLTVNALTFIPQFTVWANEGMLTLVEGPFDETLLDSCWLAIAATDDDTVNQRVSDAAESRRIFCNVVDAPKAASFIMPSIIDRSPLMVAVSAGGTSPVLARLLREKLESLLPQHLGQVARYAGQLRARVKKQFATMGERRRFWEKFFVNDRLAQSLANADEKAVNATTERLFSEPLDHRGEVVLVGAGPGDAGLLTLKGLQQIQQADIVVYDRLVSDDIMNLVRADADRVFVGKRAGYHCVPQEEINQILLREAQKGKRVVRLKGGDPFIFGRGGEELETLCHAGIPFSVVPGITAASGCSAYSGIPLTHRDYAQSVRLVTGHLKTGGELDWENLAAEKQTLVFYMGLNQAATIQEKLIAFGMQADMPVALVENGTSVKQRVVHGVLTQLGELAQQVESPALIIVGRVVALRDKLNWFSNH
# notes: as for B2
# Target: the molecule itself
# Test: crystal structure
row,Protein,binding result
1,B1,binds
2,B2,binds
3,B3,binds
4,B4,binds
5,B5,binds
6,B6,binds
7,B7,binds
8,B8,binds
9,B9,binds
